Data taken from article PMC9352680, “A comprehensive thermodynamic model for RNA binding by the Saccharomyces cerevisiae Pumilio protein PUF4”.
Substitutions are numbered along the chain they refer to. Names and notes keep the numbering of the source.

T1: PUF4 RNA-binding domain (Saccharomyces cerevisiae, UniProt P25339 537-888)
T1 sequence: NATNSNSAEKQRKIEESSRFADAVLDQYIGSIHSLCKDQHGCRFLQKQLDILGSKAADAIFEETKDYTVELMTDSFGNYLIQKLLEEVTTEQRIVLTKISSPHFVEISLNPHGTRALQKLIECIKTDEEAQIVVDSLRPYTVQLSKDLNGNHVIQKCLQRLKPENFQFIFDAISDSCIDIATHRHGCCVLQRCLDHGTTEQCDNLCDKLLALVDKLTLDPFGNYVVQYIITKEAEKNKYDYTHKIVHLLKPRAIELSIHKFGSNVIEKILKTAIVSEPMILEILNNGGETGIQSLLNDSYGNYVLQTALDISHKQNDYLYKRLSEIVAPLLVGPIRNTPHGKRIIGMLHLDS

B1: Id_ii_S2_P3E.4_K3.3_C3.2_[C-2T]_[T-1C]_H3.3_A3.1_F3.1_T3.2_[T9C]_[A10T] (ssRNA)
RNA: UUUGAUUAAUAUGAUAUCGUUCUUUCUUCACACUAUACUUUCUUUCUCGAUAUCAUAUUAAUCUUU
B2: Id_ii_S2_P3E.4_K3.3_C3.2_H3.3_A3.1_F3.1_T3.2_[T9A]_[A10T] (ssRNA)
RNA: B1 RNA with U28C, C29U, C38A
B3: Id_ii_S2_P3E.4_K3.3_C3.2_H3.3_A3.1_F3.1_T3.2_[A10T] (ssRNA)
RNA: B1 RNA with U28C, C29U, C38U
B4: Id_ii_S2_P3E.4_K3.3_C3.2_[T-1A]_H3.3_A3.1_F3.1_T3.2_[T9C]_[A10G] (ssRNA)
RNA: B1 RNA with U28C, C29A, U39G
B5: Id_ii_S2_P3E.4_K3.3_C3.2_[C-2A]_H3.3_A3.1_F3.1_T3.2_[T9A] (ssRNA)
RNA: B1 RNA with U28A, C29U, C38A, U39A
B6: Id_ii_S2_P3E.4_K3.3_C3.2_[T-1C]_H3.3_A3.1_F3.1_T3.2_[T9C]_[A10T] (ssRNA)
RNA: B1 RNA with U28C
B7: Id_ii_S2_P3E.4_K3.3_C3.2_[C-2T]_[T-1C]_H3.3_A3.1_F3.1_T3.2_[T9C] (ssRNA)
RNA: B1 RNA with U39A
B8: Id_ii_S2_P3E.4_K3.3_C3.2_[C-2T]_H3.3_A3.1_F3.1_T3.2_[T9C]_[A10T] (ssRNA)
RNA: B1 RNA with C29U
B9: Id_ii_S2_P3E.4_K3.3_C3.2_[C-2A]_[T-1A]_H3.3_A3.1_F3.1_T3.2_[T9A]_[A10T] (ssRNA)
RNA: B1 RNA with U28A, C29A, C38A
B10: Id_ii_S2_P3E.4_K3.3_C3.2_[C-2T]_[T-1A]_H3.3_A3.1_F3.1_T3.2_[T9A]_[A10T] (ssRNA)
RNA: B1 RNA with C29A, C38A
B11: Id_ii_S2_P3E.4_K3.3_C3.2_[T-1A]_H3.3_A3.1_F3.1_T3.2_[A10T] (ssRNA)
RNA: B1 RNA with U28C, C29A, C38U
B12: Id_ii_S2_P3E.4_K3.3_C3.2_[C-2A]_H3.3_A3.1_F3.1_T3.2_[T9C]_[A10C] (ssRNA)
RNA: B1 RNA with U28A, C29U, U39C
B13: Id_ii_S2_P3E.4_K3.3_C3.2_[C-2T]_[T-1C]_H3.3_A3.1_F3.1_T3.2_[T9A]_[A10G] (ssRNA)
RNA: B1 RNA with C38A, U39G
B14: Id_ii_S2_P3E.4_K3.3_C3.2_[C-2A]_H3.3_A3.1_F3.1_T3.2_[T9C]_[A10G] (ssRNA)
RNA: B1 RNA with U28A, C29U, U39G
B15: Id_ii_S2_P3E.4_K3.3_C3.2_H3.3_A3.1_F3.1_T3.2_[A10C] (ssRNA)
RNA: B1 RNA with U28C, C29U, C38U, U39C
B16: Id_ii_S2_P3E.4_K3.3_C3.2_H3.3_A3.1_F3.1_T3.2_[T9G]_[A10C] (ssRNA)
RNA: B1 RNA with U28C, C29U, C38G, U39C
B17: Id_ii_S2_P3E.4_K3.3_C3.2_[T-1A]_H3.3_A3.1_F3.1_T3.2_[T9A]_[A10T] (ssRNA)
RNA: B1 RNA with U28C, C29A, C38A
B18: Id_ii_S2_P3E.4_K3.3_C3.2_[C-2A]_H3.3_A3.1_F3.1_T3.2_[T9C] (ssRNA)
RNA: B1 RNA with U28A, C29U, U39A
B19: Id_ii_S2_P3E.4_K3.3_C3.2_[C-2T]_H3.3_A3.1_F3.1_T3.2_[A10C] (ssRNA)
RNA: B1 RNA with C29U, C38U, U39C
B20: Id_ii_S2_P3E.4_K3.3_C3.2_[C-2T]_H3.3_A3.1_F3.1_T3.2_[T9G]_[A10C] (ssRNA)
RNA: B1 RNA with C29U, C38G, U39C
B21: Id_ii_S2_P3E.4_K3.3_C3.2_[T-1C]_H3.3_A3.1_F3.1_T3.2 (ssRNA)
RNA: B1 RNA with U28C, C38U, U39A
B22: Id_ii_S2_P3E.4_K3.3_C3.2_[C-2A]_H3.3_A3.1_F3.1_T3.2_[A10C] (ssRNA)
RNA: B1 RNA with U28A, C29U, C38U, U39C
B23: Id_ii_S2_P3E.4_K3.3_C3.2_[C-2A]_[T-1C]_H3.3_A3.1_F3.1_T3.2_[T9C]_[A10T] (ssRNA)
RNA: B1 RNA with U28A
B24: Id_ii_S2_P3E.4_K3.3_C3.2_H3.3_A3.1_F3.1_T3.2_[T9A] (ssRNA)
RNA: B1 RNA with U28C, C29U, C38A, U39A
B25: Id_ii_S2_P3E.4_K3.3_C3.2_[C-2T]_[T-1C]_H3.3_A3.1_F3.1_T3.2_[A10C] (ssRNA)
RNA: B1 RNA with C38U, U39C
B26: Id_ii_S2_P3E.4_K3.3_C3.2_[C-2A]_H3.3_A3.1_F3.1_T3.2_[T9A]_[A10T] (ssRNA)
RNA: B1 RNA with U28A, C29U, C38A
B27: Id_ii_S2_P3E.4_K3.3_C3.2_[T-1A]_H3.3_A3.1_F3.1_T3.2_[T9C]_[A10T] (ssRNA)
RNA: B1 RNA with U28C, C29A
B28: Id_ii_S2_P3E.4_K3.3_C3.2_[T-1A]_H3.3_A3.1_F3.1_T3.2_[T9C]_[A10C] (ssRNA)
RNA: B1 RNA with U28C, C29A, U39C
B29: Id_ii_S2_P3E.4_K3.3_C3.2_[C-2T]_H3.3_A3.1_F3.1_T3.2_[A10G] (ssRNA)
RNA: B1 RNA with C29U, C38U, U39G
B30: Id_ii_S2_P3E.4_K3.3_C3.2_[C-2A]_[T-1C]_H3.3_A3.1_F3.1_T3.2_[T9A] (ssRNA)
RNA: B1 RNA with U28A, C38A, U39A
B31: Id_ii_S2_P3E.4_K3.3_C3.2_[C-2A]_[T-1A]_H3.3_A3.1_F3.1_T3.2_[T9C]_[A10G] (ssRNA)
RNA: B1 RNA with U28A, C29A, U39G
B32: Id_ii_S2_P3E.4_K3.3_C3.2_[T-1C]_H3.3_A3.1_F3.1_T3.2_[T9C]_[A10C] (ssRNA)
RNA: B1 RNA with U28C, U39C
B33: Id_ii_S2_P3E.4_K3.3_C3.2_[C-2T]_[T-1A]_H3.3_A3.1_F3.1_T3.2_[T9C]_[A10T] (ssRNA)
RNA: B1 RNA with C29A
B34: Id_ii_S2_P3E.4_K3.3_C3.2_[C-2A]_[T-1A]_H3.3_A3.1_F3.1_T3.2_[A10C] (ssRNA)
RNA: B1 RNA with U28A, C29A, C38U, U39C
B35: Id_ii_S2_P3E.4_K3.3_C3.2_[C-2A]_[T-1A]_H3.3_A3.1_F3.1_T3.2_[T9A] (ssRNA)
RNA: B1 RNA with U28A, C29A, C38A, U39A
B36: Id_ii_S2_P3E.4_K3.3_C3.2_[T-1G]_H3.3_A3.1_F3.1_T3.2_[A10T] (ssRNA)
RNA: B1 RNA with U28C, C29G, C38U
B37: Id_ii_S2_P3E.4_K3.3_C3.2_[C-2T]_[T-1A]_H3.3_A3.1_F3.1_T3.2_[T9A] (ssRNA)
RNA: B1 RNA with C29A, C38A, U39A
B38: Id_ii_S2_P3E.4_K3.3_C3.2_[C-2A]_H3.3_A3.1_F3.1_T3.2_[T9A]_[A10G] (ssRNA)
RNA: B1 RNA with U28A, C29U, C38A, U39G
B39: Id_ii_S2_P3E.4_K3.3_C3.2_[T-1A]_H3.3_A3.1_F3.1_T3.2_[T9G]_[A10C] (ssRNA)
RNA: B1 RNA with U28C, C29A, C38G, U39C
B40: Id_ii_S2_P3E.4_K3.3_C3.2_[T-1C]_H3.3_A3.1_F3.1_T3.2_[T9A]_[A10T] (ssRNA)
RNA: B1 RNA with U28C, C38A
B41: Id_ii_S2_P3E.4_K3.3_C3.2_[C-2T]_[T-1C]_H3.3_A3.1_F3.1_T3.2_[A10T] (ssRNA)
RNA: B1 RNA with C38U
B42: Id_ii_S2_P3E.4_K3.3_C3.2_[C-2A]_[T-1C]_H3.3_A3.1_F3.1_T3.2_[A10T] (ssRNA)
RNA: B1 RNA with U28A, C38U
B43: Id_ii_S2_P4E.2_K4.1_C4.2_[C-2G]_[T-1G]_H4.1_A4.1_F4.1_T4.2_[G10T] (ssRNA)
RNA: UUUGAUUAAUAUGAUAUCGUUCUUUCUGGUGUAUAUUAUUUUCUUUCUCGAUAUCAUAUUAAUCUUU
B44: Id_ii_S2_P4E.2_K4.1_C4.2_[C-2G]_[T-1C]_H4.1_A4.1_F4.1_T4.2_[G10T]_[T11A] (ssRNA)
RNA: B43 RNA with G29C, U40A
B45: Id_ii_S2_P4E.2_K4.1_C4.2_[C-2G]_[T-1C]_H4.1_A4.1_F4.1_T4.2_[G10T] (ssRNA)
RNA: B43 RNA with G29C
B46: Id_ii_S2_P4E.2_K4.1_C4.2_[C-2G]_[T-1G]_H4.1_A4.1_F4.1_T4.2_[G10A]_[T11A] (ssRNA)
RNA: B43 RNA with U39A, U40A
B47: Id_ii_S2_P4E.2_K4.1_C4.2_[C-2G]_[T-1C]_H4.1_A4.1_F4.1_T4.2_[G10C] (ssRNA)
RNA: B43 RNA with G29C, U39C
B48: Id_ii_S2_P4E.2_K4.1_C4.2_[C-2G]_[T-1C]_H4.1_A4.1_F4.1_T4.2_[G10T]_[T11G] (ssRNA)
RNA: B43 RNA with G29C, U40G
B49: Id_ii_S2_P4E.2_K4.1_C4.2_[C-2G]_[T-1C]_H4.1_A4.1_F4.1_T4.2_[G10A]_[T11A] (ssRNA)
RNA: B43 RNA with G29C, U39A, U40A
B50: Id_ii_S2_P4E.2_K4.1_C4.2_[C-2G]_[T-1C]_H4.1_A4.1_F4.1_T4.2_[G10C]_[T11C] (ssRNA)
RNA: B43 RNA with G29C, U39C, U40C
B51: Id_ii_S2_P4E.2_K4.1_C4.2_[C-2G]_[T-1C]_H4.1_A4.1_F4.1_T4.2_[G10A] (ssRNA)
RNA: B43 RNA with G29C, U39A

Biological target: T1, PUF4 RNA-binding domain
Test: Mg; RNA-MaP; 20 mM Na-HEPES pH 7.4, 30 mM KOAc, 0.75 mM MgCl2, 0.1% Tween-20, 5% glycerol, 0.1 mg/mL BSA, 2 mM DTT; 25 C; 0.0125-409.6 nM protein
Details: tags: N-His6-TEV cleaved; C-SNAP kept, Cy3B-labelled; label: tethered on chip by stalled RNA polymerase

Binder | Kd
B1 | 1260 nM
B2 | 776 nM
B3 | 399 nM
B4 | > 2300 nM
B5 | 27.3 nM
B6 | 1080 nM
B7 | 417 nM
B8 | 670 nM
B9 | > 2300 nM
B10 | 2150 nM
B11 | 1130 nM
B12 | 15.5 nM
B13 | > 2300 nM
B14 | 116 nM
B15 | 343 nM
B16 | 1600 nM
B17 | > 2300 nM
B18 | 21.7 nM
B19 | 475 nM

Binder | Kd
B20 | 898 nM
B21 | 194 nM
B22 | 11.8 nM
B23 | 1810 nM
B24 | 454 nM
B25 | 1260 nM
B26 | 32.2 nM
B27 | > 2300 nM
B28 | 2100 nM
B29 | > 2300 nM
B30 | 1070 nM
B31 | > 2300 nM
B32 | 1460 nM
B33 | 1860 nM
B34 | 1770 nM
B35 | 2020 nM
B36 | 1500 nM
B37 | > 2300 nM
B38 | 174 nM

Binder | Kd
B39 | > 2300 nM
B40 | 1890 nM
B41 | 940 nM
B42 | 868 nM
UCUCUUUGUAUUAUUCUCUCUU (ssRNA) [Ia_S1_P5E.1_K5.1_C5.1_H5.1_A5.1_F5.1_[A10C]_T5.1] | 16.4 nM
UCUCUUUGUCUUAUCAUCUCUU (ssRNA) [Ib_S1_P5E.1_K5.1_C5.1_H5.1_[A4C]_A5.1_F5.1_[T9C]_T5.1] | 2040 nM
UCUCUUUGUGUUAUGAUCUCUU (ssRNA) [Ib_S1_P5E.1_K5.1_C5.1_H5.1_[A4G]_A5.1_F5.1_[T9G]_T5.1] | 750 nM
B43 | 0.435 nM
B44 | 0.822 nM
B45 | 0.289 nM
B46 | 1.5 nM
B47 | 0.667 nM
B48 | 0.82 nM
B49 | 0.738 nM
B50 | 1.25 nM
B51 | 0.535 nM
UCUCUUUGUGUUAUAAUCUCUU (ssRNA) [Ib_S1_P5E.1_K5.1_C5.1_H5.1_[A4G]_A5.1_F5.1_[T9A]_T5.1] | 57.8 nM
UCUCUUUGUCUUAUAAUCUCUU (ssRNA) [Ib_S1_P5E.1_K5.1_C5.1_H5.1_[A4C]_A5.1_F5.1_[T9A]_T5.1] | 102 nM
UCUCUUUGUUUUAUGAUCUCUU (ssRNA) [Ib_S1_P5E.1_K5.1_C5.1_H5.1_[A4T]_A5.1_F5.1_[T9G]_T5.1] | 981 nM
